Laboratory results published in article PMC7323586 (Journal of molecular biology, 2020).

Target: the molecule itself
Experiment: SEC

B1: Bacillus subtilis xanthine phosphoribosyltransferase (XPRT), hexahistidine tag removed (enzyme, UniProt P42085 1-194, looked up)
chain: MEALKRKIEEEGVVLSDQVLKVDSFLNHQIDPLLMQRIGDEFASRFAKDGITKIVTIESSGIAPAVMTGLKLGVPVVFARKHKSLTLTDNLLTASVYSFTKQTESQIAVSGTHLSDQDHVLIIDDFLANGQAAHGLVSIVKQAGASIAGIGIVIEKSFQPGRDELVKLGYRVESLARIQSLEEGKVSFVQEVHS
- stoichiometry N: 2
